From patent US20220144927A1 (SUMITOMO DAINIPPON PHARMA, published 2022) come the findings set out here.

For this assay, the target named is T1, mucin subtype 5AC (human, UniProt P98088 28-5654, limits assumed).
T1 construct: Not a purified recombinant protein; also called MUC5AC; crude extract antigen solution
The experiment in a line: ELISA, plate coated with crude extract antigen solution of SW1990 xenograft tumor, HRP anti-human IgG; reference antibody. The method, then: Various antibodies were added to a 96 well plate coated with various antigens, and the plate was left standing for 1 hr at room temperature. The plate was washed, a blocking solution was added, and the mixture was left standing for 30 min at room temperature. The plate was washed, HRP-conjugated anti-human IgG was added, and the mixture was left standing for 1 hr or longer at room temperature. The plate was washed, a color development reagent (Bethyl Laboratories, Inc.) was added, and the degree of color development was measured by a microplate reader (VersaMax, Molecular Devices, LLC.).
In Table 2 and Table 3, a tumor mass collected from a cancer-bearing model mouse transplanted with human pancreatic cancer cell line SW1990 was homogenized, and the supernatant (crude extract antigen solution) after centrifugation was used as an antigen. In Table 4, a mucin fraction obtained by isopycnic centrifugation using cesium chloride from the crude extract antigen solution was used as the antigen.
A general note: ELISA stands for enzyme-linked immunosorbent assay.

B1: antibody 9 (antibody, V domains shown)
VH: LVQLVESGGGVVQPGRSLRLSCAASGFTFSNYGMSWVRQAPGKGLEWVATISNSGRYTYFPDSVKGRFTISRDNSKNTLYLQMNSLRAEDTAVYYCTRHLDYANYDAMDYWGQGTLVTVSS
VL: DIVMTQSPSSLSASVGDRVTITCRASKSVTTSDFSYMHWYQQKPGKAPKLLIYLASNLESGVPSRFSGSGSGTDFTLTISSLQPEDFATYYCQHSREFPWTFGGGTKVEIK
notes: Humanized antibody of the invention; also called H03L01
For the molecule B1, the “in vitro binding activity ratio to antibody 9” value worked out at 1 fold vs antibody 9.
